The results in this text go back to patent US20030175703.

Read-outs that look alike come from different tables or passages of the source.

Data set [1] deals with coagulation factor IXa (FIXa) (UniProt P00740+P00740). Conditions: FIG. 20 legend gives >>5 uM.
Data set [2] deals with E2F.
Data set [3] has as its system E2F. The source holds these as a separate data set.
The target in data set [4] is coagulation factor Xa (FXa) (UniProt P00742+P00742).
coagulation factor Xa (FXa), sequence (P00742 41-179, chain 1 of 2): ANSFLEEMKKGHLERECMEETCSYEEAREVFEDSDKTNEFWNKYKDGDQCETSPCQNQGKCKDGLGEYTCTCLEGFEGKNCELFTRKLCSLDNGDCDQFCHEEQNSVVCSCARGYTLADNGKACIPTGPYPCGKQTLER
coagulation factor Xa (FXa), sequence (P00742 235-488, chain 2 of 2): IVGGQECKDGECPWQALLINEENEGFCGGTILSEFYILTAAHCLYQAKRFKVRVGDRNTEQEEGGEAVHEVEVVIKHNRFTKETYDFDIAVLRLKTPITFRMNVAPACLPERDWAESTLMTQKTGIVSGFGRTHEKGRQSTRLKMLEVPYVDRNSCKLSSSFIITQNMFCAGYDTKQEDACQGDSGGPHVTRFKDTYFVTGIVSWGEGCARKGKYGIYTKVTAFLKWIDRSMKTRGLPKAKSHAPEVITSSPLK

coagulation factor IXa (FIXa), sequence (P00740 47-191, chain 1 of 2): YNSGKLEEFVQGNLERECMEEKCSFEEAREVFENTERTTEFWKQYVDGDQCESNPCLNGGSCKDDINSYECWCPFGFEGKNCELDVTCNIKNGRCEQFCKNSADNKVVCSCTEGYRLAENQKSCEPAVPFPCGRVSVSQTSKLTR
coagulation factor IXa (FIXa), sequence (P00740 227-461, chain 2 of 2): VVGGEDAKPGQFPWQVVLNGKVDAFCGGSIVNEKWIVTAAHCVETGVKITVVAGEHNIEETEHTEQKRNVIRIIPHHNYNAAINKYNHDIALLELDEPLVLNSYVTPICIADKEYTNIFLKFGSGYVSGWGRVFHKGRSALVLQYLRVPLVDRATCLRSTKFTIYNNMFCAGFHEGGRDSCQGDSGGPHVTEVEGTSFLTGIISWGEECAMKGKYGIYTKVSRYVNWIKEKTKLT

Take 9.3tM: the dissociation constant Kd in data set [1] was above 10000 nM. Regarding “AAUGGAAUCACUGAAGGCCCUCCGUAGCACCUAACACAGU [E2F aptamer 221]”, the Kd in data set [2] (random region only) was 1.5 nM. On the same count and under the same terms, for “ACCUCGACCCUUCACCUGACUCUCCCAGAAGUUCUGUUUC [E2F aptamer 219]” the value was 2 nM.

In turn, “AUCCCCGCCGUAAGCCGUCCUGAUGGACACCACACGCCGC [E2F aptamer 226]” yielded a Kd in data set [2] (random region only, table and listing differ near 5' end) of 2 nM. This counts as single-digit nanomolar. “CAAGCGCUGAAACCAAUGCACCCCACCCCACACUGGUGUAC [E2F aptamer 204]” displayed a dissociation constant (Kd) in data set [2] (random region only) of 1.25 nM.

Regarding “CAAGCGUAUACCCUACCCACACUGAGCUACAUUGCGCUGA [E2F aptamer 213]”, the dissociation constant Kd in data set [2] (random region only) is 8 nM. Regarding “CACUGAACGAAUGGCAACCGCCAAACCCUACCCACACUGG [E2F aptamer 212]”, the Kd in data set [2] (listed as assignment inferred) was determined as 0.2 nM.

The substance “CAGAUUACCCUACCCACACUGCGUGCGGACAACCAUUGGC [E2F aptamer 201]” had a Kd in data set [2] (random region only) of 0.4 nM. “CCACCCGAAGCAAAUCAAGCCCGACGGCGCUCGGACCAAC [E2F aptamer 217]” showed an equilibrium dissociation constant (Kd) in data set [2] (random region only) of 15 nM.

“CGAACGAACUGUGGACCCUACCCACACUGGGCCAAGCGAU [E2F aptamer 207]” had a dissociation constant (Kd) in data set [2] (random region only) of 0.4 nM. Take “CGUCACUCCGUCCCAGCCGACGAAGUCCGUAAUUCCUCCA [E2F aptamer 216]”: the Kd in data set [2] (random region only) was 45 nM. Same read-out and setting: for “GCACUAAACUUCGAUUACCCCCCACCCACACUGGCUGCAC [E2F aptamer 200]” the value was 4 nM; for “GCAUCCUGCCAGCGGCGACGGACCUUCGCCCACAGGCCUC [E2F aptamer 222]”, 2 nM. On the same count and under the same terms, for “GCCGAGAGUGAGUGACCACAACCCCGCCCACACUGGAAUA [E2F aptamer 214]” the value was 1.5 nM. Consider “GCUGCCGCGCCUGGACCCCACCCACAUAUGGGCCACACAC [E2F aptamer 189]”, for which the Kd in data set [2] (random region only, listing prints T for U) stood at 1.5 nM. As for “GGGAGAGAGGAAGAGGGAGGGAAAGCACACGAAGCCCCAGCAAAACCCCACAGGCAAACCCAGAGGCGAAGACGGACCCCCC [E2F 10-3 / 10-7 / 10-11 / 10-12]”, the Kd in data set [3] (printed sequence appears to lack U residues (compare SEQ 223)) is 1 nM. In turn, “GGGAGAGAGGAAGAGGGAGGGAAGGAACACGAAGGCCCCCGAGCACCAACACAGCAAACCCAGAGGCGAAGACGGACCCCCC [E2F 10-1 / 10-8]” yielded an equilibrium dissociation constant (Kd) in data set [3] (printed sequence appears to lack U residues (compare SEQ 221)) of 1.5 nM. “GGGAGAGAGGAAGAGGGAGGGACCCCGCCGAAGCCGCCGAGGACACCACACCCGCCAAACCCAGAGGCGAAGACGGACCCCCC [E2F 10-6]”: in data set [3] (printed sequence appears to lack U residues (compare SEQ 226)), the Kd was 2 nM. With “GGGAGAGAGGAAGAGGGAGGGAGAAACACAGAAGCCCGCGCGACACCCCACGCAAACCCAGAGGCGAAGACGGACCCCCC [E2F 10-4]”, the Kd in data set [3] (printed sequence appears to lack U residues (compare SEQ 224)) turned out to be 5 nM. “GGGAGAGAGGAAGAGGGAGGGCAAACCACAGACCCAACGCAGGAGCACCCACCCACACGGGACAGCAAACCCAGAGGCGAAGACGGACCCCCC [E2F 10-5]” returned a Kd in data set [3] (printed sequence appears to lack U residues (compare SEQ 225)) of 2.5 nM. In data set [3] (printed sequence appears to lack U residues (compare SEQ 222)), “GGGAGAGAGGAAGAGGGAGGGGCACCGCCAGCGGCGACGGACCCGCCCACAGGCCCCAAACCCAGAGGCGAAGACGGACCCCCC [E2F 10-2]” yielded an equilibrium dissociation constant (Kd) of 3 nM. Turning to “GGGAGAGAGGAAGAGGGAUGGGAAAAUACGCCANNCGAGAUUAUACUUGGCCCCGCUAAUACCAUAACCCAGAGGUCGAU [D6-6]”, the Kd in data set [4] worked out at 3.1 nM. “GGGAGAGAGGAAGAGGGAUGGGAGUCCGACUGGAGAACANGUACUCUAUAAGCACUUNCAUNCANCAUAACCCAGAGGUCGAU [E10-7]” yielded an equilibrium dissociation constant (Kd) in data set [4] of 69.5 nM. Take “GGGAGAGAGGAAGAGGGAUGGGCCAUUGCUNCCCUGAACANGGGCNCCACNCCGCCUNCACAGUCAUAACCCAGAGGUCGAU [E10-1]”: the Kd in data set [4] came to 51.7 nM. In data set [4], “GGGAGAGAGGAAGAGGGAUGGGNGAUUAGCCCNAGCGAGAUANUACUUGGCCCCGCUACNUCCAUAACCCAGAGGUCGAU [D7-8]” gave a Kd of 14.5 nM. The substance “UAUGAAAUCACAGAAGCCCGCGUUCGACACCUCCACUGUU [E2F aptamer 224]” came in with an equilibrium dissociation constant (Kd) in data set [2] (random region only) of 3 nM. Same read-out and setting: for “UUAUAUAGCACACUGAAGCCCUCAGCAAAACCUCCACAGG [E2F aptamer 223]” the value was 1.5 nM; for “UUUCCUAUGGCGAUAACUUCAGCCACGCCGGCGCCCCGUG [E2F aptamer 215]”, 30 nM.
